Laboratory results as given in patent US20230295559A1 (PIVOT BIO, published 2023).

Target: T1, glutamine synthetase GlnA (Paenibacillus polymyxa CI41)
T1 chain: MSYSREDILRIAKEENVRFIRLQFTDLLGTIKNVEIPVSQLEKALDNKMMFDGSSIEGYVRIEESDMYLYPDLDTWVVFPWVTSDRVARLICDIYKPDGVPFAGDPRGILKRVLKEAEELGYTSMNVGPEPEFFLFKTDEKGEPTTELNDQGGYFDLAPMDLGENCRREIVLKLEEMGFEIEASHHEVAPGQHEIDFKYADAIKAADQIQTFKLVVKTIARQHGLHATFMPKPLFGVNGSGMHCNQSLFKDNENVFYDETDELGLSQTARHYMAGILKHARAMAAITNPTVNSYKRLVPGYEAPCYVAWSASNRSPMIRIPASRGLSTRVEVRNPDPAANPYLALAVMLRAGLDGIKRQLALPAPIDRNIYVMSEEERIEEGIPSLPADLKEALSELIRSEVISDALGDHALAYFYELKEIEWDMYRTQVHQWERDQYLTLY
Experiment: cell-based or functional assay

overall nitrogenase activity (acetylene reduction assay): 5 fold
B1: GlnR with C-terminal deletion (Δ113-137) (other)
chain: MGDEIRRNMALFPIGIVMKLTDLSARQIRYYEQHNLIVPARTSGNQRLFSFNDVERLLEIKALIEKGVNIAGIKQVMNPVTKESEEATVITADTEVKRREMSDTQLHRLLKQ
